Positions count from the first letter of the chain named.

The text below walks through data of US20190248900A1 (Y BIOLOGICS, published 2019).

T1: OGN (Homo sapiens (Human), UniProt P20774 21-298)
T1 sequence: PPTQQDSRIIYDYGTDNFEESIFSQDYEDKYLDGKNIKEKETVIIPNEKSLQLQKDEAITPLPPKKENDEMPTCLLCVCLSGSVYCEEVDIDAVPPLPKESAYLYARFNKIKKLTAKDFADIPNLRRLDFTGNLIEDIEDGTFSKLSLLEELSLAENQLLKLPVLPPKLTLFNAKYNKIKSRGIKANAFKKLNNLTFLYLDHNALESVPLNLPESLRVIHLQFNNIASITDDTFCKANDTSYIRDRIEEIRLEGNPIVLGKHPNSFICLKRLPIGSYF

T2: SLITRK5 (Homo sapiens (Human), UniProt O94991 41-664)
T2 sequence: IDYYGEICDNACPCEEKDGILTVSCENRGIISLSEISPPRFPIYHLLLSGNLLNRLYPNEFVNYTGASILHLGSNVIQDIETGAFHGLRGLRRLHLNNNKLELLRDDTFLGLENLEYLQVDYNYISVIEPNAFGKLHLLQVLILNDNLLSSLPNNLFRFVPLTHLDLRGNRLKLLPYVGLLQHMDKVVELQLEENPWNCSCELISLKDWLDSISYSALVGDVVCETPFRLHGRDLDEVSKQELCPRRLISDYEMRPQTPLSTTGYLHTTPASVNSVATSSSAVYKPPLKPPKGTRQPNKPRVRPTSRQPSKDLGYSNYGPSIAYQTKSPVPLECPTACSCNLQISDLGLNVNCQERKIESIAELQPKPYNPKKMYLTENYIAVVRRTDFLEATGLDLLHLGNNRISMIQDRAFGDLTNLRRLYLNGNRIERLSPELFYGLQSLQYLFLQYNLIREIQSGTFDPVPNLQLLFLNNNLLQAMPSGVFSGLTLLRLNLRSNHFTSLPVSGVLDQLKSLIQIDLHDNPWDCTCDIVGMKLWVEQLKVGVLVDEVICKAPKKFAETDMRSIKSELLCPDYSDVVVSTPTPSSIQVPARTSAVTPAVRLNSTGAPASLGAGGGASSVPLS

T3: TPBG (Homo sapiens (Human), UniProt Q13641 32-355)
T3 sequence: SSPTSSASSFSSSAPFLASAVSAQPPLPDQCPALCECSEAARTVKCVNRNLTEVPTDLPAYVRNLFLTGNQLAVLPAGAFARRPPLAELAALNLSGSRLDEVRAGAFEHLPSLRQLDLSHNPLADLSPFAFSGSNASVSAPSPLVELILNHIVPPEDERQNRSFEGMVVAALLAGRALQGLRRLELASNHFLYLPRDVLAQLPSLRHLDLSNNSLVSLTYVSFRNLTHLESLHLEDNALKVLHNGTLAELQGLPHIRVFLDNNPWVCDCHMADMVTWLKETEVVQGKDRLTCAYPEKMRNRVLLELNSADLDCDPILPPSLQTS

T4: EV12A (Homo sapiens (Human), UniProt P22794 31-133)
T4 sequence: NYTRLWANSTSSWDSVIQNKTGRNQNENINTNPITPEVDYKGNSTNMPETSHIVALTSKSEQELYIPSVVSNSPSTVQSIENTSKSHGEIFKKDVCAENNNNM

T5: LRTM1 (Homo sapiens (Human), UniProt Q9HBL6 28-288)
T5 sequence: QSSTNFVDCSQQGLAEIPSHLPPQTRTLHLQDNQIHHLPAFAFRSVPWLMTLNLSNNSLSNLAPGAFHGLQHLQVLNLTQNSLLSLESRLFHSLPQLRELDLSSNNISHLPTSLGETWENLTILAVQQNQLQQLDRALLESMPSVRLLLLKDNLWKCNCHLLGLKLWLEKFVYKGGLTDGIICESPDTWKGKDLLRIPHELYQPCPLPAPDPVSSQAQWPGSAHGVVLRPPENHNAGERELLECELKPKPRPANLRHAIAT

T6: FSTL3 (Homo sapiens (Human), UniProt O95633 27-263)
T6 sequence: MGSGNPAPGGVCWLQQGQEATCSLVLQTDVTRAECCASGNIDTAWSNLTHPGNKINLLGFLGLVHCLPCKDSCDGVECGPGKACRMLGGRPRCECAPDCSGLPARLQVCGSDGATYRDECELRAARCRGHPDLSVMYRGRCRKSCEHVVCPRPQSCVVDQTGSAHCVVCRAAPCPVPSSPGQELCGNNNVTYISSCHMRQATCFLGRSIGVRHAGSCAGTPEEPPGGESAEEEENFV

T7: CD86 (Homo sapiens (Human), UniProt P42081 24-247)
T7 sequence: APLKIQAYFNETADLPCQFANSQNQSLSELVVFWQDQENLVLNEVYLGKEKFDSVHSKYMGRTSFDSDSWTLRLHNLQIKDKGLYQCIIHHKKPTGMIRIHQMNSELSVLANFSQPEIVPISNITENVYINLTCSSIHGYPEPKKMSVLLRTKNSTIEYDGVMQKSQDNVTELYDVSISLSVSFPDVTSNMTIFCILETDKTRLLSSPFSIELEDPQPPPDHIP

T8: CD209 (Homo sapiens (Human), UniProt Q9NNX6 59-404)
T8 sequence: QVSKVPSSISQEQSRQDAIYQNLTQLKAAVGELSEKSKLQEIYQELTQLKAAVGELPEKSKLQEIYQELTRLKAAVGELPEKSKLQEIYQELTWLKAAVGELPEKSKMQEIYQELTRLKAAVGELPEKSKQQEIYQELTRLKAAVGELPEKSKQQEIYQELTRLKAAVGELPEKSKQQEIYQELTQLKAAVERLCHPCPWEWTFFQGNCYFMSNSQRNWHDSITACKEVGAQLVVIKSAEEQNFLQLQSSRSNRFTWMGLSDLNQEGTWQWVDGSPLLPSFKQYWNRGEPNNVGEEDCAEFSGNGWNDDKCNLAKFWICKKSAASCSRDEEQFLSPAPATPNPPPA

B1: PD1-41C9 (antibody, V domains shown)
VH: QMQLVESGGGVVQPGRSLRLSCAASGFTFSSYAMHWVRQAPGKGLEWVAVISYDGSNKYYADSVKGRFTISRDNSKNTLYLQMNRLRSEDTAVYYCTTTTFDSWGQGTLITVSS
VL: DIVMTQTPLSLPVTPGEAASISCRSSQSLLDSEDGNTYLDWYLQKPGQSPQLLIYTLSHRASGVPDRFSGSGSGTDFTLKISRVAAEDVGLYYCLQRMGFPYTFGQGTKLDIK
notes: scFv-phage in the screening ELISA; whole IgG in the other assays
B2: PD1-49A2 (antibody, V domains shown)
VH: B1 VH with M2V, S75P, R85S, S88A, Q106R, I110V
VL: B1 VL with T7S, A18P, L30F, E33D, A85E, L91I, L110V, D111E
notes: scFv-phage in the screening ELISA; whole IgG in the other assays; also called Parent 49A2
B3: PD1-45D6 (antibody, V domains shown)
VH: QVQLVESGGGVVQPGRSLRLSCAASGFTFSSYAMHWVRQVPGKGLEWVAVISYDGNDKYYADSVKGRFTISRDNSKNTLYLQMNSLRAEDTAVYYCVPTTFEYWGQGSQVTVSS
VL: DIVMTQTPLSLPVTPGEAASISCRSSQSLLDSDDGKTYLDWYLQKPGQSPQLLIYTLSYRASGVPDRFSGSGSGTEFNLRISRVEAEDVGIYYCMQRVEFPFTFGQGTKLDIK
notes: as for B1

One test deals with T1, OGN. The experiment in a line: ELISA. A general note: In an ELISA, binding on a coated surface is turned into a signal by an enzyme label.
Regarding B1, the binding result is “no binding (tested: 1 ug/ml)”.

Take B2: the binding result was “no binding (tested: 1 ug/ml)”.

As to B3, the binding result was “no binding (tested: 1 ug/ml)”.

The target in the next test is MICA (Homo sapiens (Human), UniProt Q29983 24-307). The test is described as follows: ELISA.
Chain of MICA (Q29983 24-307 limits assumed): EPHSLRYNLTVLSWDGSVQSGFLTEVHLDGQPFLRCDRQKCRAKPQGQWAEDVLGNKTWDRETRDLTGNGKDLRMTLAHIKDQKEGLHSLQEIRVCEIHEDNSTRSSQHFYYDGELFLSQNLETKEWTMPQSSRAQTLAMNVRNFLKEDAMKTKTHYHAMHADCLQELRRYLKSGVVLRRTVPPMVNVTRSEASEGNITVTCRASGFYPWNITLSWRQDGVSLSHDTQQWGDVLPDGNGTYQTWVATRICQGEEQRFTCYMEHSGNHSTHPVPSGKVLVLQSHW
As to B1, the binding result is “no binding (tested: 1 ug/ml)”.

Take B2: the binding result is “no binding (tested: 1 ug/ml)”.

Take B3: the binding result is “no binding (tested: 1 ug/ml)”.

A further test has as its target T2, SLITRK5. The test is described as follows: ELISA.
On to B1, for which the binding result was “no binding (tested: 1 ug/ml)”.

Take B2: the binding result is recorded as “no binding (tested: 1 ug/ml)”.

Consider B3, for which the binding result is “no binding (tested: 1 ug/ml)”.

A further test deals with T3, TPBG. The experiment in a line: ELISA.
With B1, the binding result was “no binding (tested: 1 ug/ml)”.

On to B2, for which the binding result was “no binding (tested: 1 ug/ml)”.

For B3, the binding result was “no binding (tested: 1 ug/ml)”.

Another test has as its target T4, EV12A. The test is described as follows: ELISA.
For the molecule B1, the binding result is listed as “no binding (tested: 1 ug/ml)”.

B2: the binding result is on record as “no binding (tested: 1 ug/ml)”.

In the case of B3, the binding result is reported as “no binding (tested: 1 ug/ml)”.

Another test concerns the target T5, LRTM1. The test is described as follows: ELISA.
For B1, the binding result was “no binding (tested: 1 ug/ml)”.

For B2, the binding result is “no binding (tested: 1 ug/ml)”.

As for B3, the binding result is recorded as “no binding (tested: 1 ug/ml)”.

A further test addresses T6, FSTL3. The experiment in a line: ELISA.
Consider B1, for which the binding result is on record as “no binding (tested: 1 ug/ml)”.

On to B2, for which the binding result was “no binding (tested: 1 ug/ml)”.

For the molecule B3, the binding result was “no binding (tested: 1 ug/ml)”.

A further test concerns the target T7, CD86. The test is described as follows: ELISA.
B1: the binding result is listed as “no binding (tested: 1 ug/ml)”.

With B2, the binding result is “no binding (tested: 1 ug/ml)”.

With B3, the binding result was “no binding (tested: 1 ug/ml)”.

Another test concerns the target T8, CD209. The test is described as follows: ELISA.
Take B1: the binding result was “no binding (tested: 1 ug/ml)”.

Turning to B2, the binding result was “no binding (tested: 1 ug/ml)”.

Take B3: the binding result was “no binding (tested: 1 ug/ml)”.
